Target: oxMIF (recombinant human MIF immobilized into microwell plates, transforming MIF to oxMIF) (human) (UniProt P14174)
Assay: ELISA on immobilized MIF (oxMIF), protein L-HRP detection, mean of triplicate

Sequence of oxMIF (recombinant human MIF immobilized into microwell plates, transforming MIF to oxMIF) (human) (P14174 2-115 limits assumed): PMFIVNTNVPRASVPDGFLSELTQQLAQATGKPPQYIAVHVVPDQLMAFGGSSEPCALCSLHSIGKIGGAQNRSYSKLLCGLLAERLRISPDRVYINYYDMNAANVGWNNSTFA

EC50: 0.6 nM
Substance: Imalumab (C0008), anti-oxMIF monospecific antibody
